Here are results for two molecules from doi:10.1101/2021.04.26.441214 (bioRxiv, 2021).

Common to all, as to experiment: cryo-EM structure
Data set [1] deals with T. maritima encapsulin shell protein (wild type) (T. maritima) (UniProt Q9WZP2).
The target is the same in data set [2]. The source holds these as a separate data set.
The data set “cryo-EM structure” deals with the molecule itself.

By stoichiometry N is commonly meant the number of molecules, sites or subunits per partner or assembly.

Chain of T. maritima encapsulin shell protein (wild type) (T. maritima) (Q9WZP2 whole entry): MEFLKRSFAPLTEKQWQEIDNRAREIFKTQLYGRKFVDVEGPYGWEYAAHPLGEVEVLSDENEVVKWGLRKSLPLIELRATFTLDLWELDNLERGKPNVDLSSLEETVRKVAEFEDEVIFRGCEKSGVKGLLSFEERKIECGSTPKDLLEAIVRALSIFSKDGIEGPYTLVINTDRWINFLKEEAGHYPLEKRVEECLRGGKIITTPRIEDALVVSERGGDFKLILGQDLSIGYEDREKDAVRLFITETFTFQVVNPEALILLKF

In data set [1], “T. maritima encapsulin shell protein (wild type) (from UniProt Q9WZP2 1-265) (natural protein)” returned a stoichiometry N (subunits per shell) of 60.

B1: T. maritima ferritin-like protein (FLP) cargo (natural protein, UniProt Q9WZP3 1-114, looked up)
chain: MADQYHEPVSELTGKDRDFVRALNSLKEEIEAVAWYHQRVVTTKDETVRKILEHNRDEEMEHAAMLLEWLRRNMPGWDEALRTYLFTDKPITEIEEETSGGSENTGGDLGIRKL
B1 showed an FLPs per shell (2D class averages) (FLPs per shell) in data set [2] of 2. The “stoichiometry N” value in the data set “cryo-EM structure” turned out to be 10 subunits.
